Assay results: paper PMC6044281, “Cooperative Domain Formation by Homologous Motifs in HOIL-1L and SHARPIN Plays A Crucial Role in LUBAC Stabilization” (Cell reports, 2018)
Substitutions are numbered along the chain they refer to. Numbers in names are those of the source.

T1: mHOIL-1L_(1–189)-strep (mouse, UniProt Q9WUB0 1-189)
T1 construct: mouse HOIL-1L LTM-UBL, aa 1-189; Captured on the SPR chip with an anti-strep antibody; also called HOIL-1L_(1–189) (LTM-UBL); not shown: strep, C-terminal, kept
T1 sequence (looked up): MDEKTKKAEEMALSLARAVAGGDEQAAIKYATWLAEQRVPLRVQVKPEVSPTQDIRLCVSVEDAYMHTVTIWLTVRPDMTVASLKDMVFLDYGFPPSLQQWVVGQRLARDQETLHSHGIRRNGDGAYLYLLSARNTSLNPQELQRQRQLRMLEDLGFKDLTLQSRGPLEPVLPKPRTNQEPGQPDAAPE

T2: mHOIL-1L_(1–140) and mSHARPIN_(163–301) applied together (mouse, UniProt Q9WUB0 1-140; Q91WA6 163-301)
T2 construct: mouse HOIL-1L aa 1-140, as m2; The two fragments were mixed and applied together as one SPR analyte; they heterodimerise through their LTMs; also called the two UBL-containing proteins applied simultaneously; both proteins together
T2 sequence (looked up) 1: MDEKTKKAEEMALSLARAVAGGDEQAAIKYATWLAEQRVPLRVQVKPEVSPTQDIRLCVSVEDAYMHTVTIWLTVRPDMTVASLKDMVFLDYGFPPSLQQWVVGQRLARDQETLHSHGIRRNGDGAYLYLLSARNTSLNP
T2 sequence (looked up) 2: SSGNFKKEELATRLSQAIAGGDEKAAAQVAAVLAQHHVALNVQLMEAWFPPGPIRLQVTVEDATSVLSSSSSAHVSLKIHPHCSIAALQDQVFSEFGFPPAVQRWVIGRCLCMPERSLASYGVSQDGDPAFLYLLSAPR

B1: mHOIL-1L_(1–140) (domain or fragment, mouse, UniProt Q9WUB0 1-140, looked up)
chain: T2 sequence (looked up) 1
notes: mouse HOIL-1L, LTM and UBL, aa 1-140; Used as SPR analyte and in the crystal; also called HOIL-1L LTM-UBL (aa 1–140); mHOIL-1L containing UBL (aa 1–140)
B2: mSHARPIN_(163–301) (domain or fragment, mouse, UniProt Q91WA6 163-301, looked up)
chain: T2 sequence (looked up) 2
notes: No tag is named for these experiments; it may be the same MBP fusion as m12; also called SHARPIN LTM-UBL
B3: MBP-mSHARPIN UBL_(163–301) (domain or fragment, mouse, UniProt Q91WA6 163-301, looked up)
chain: T2 sequence (looked up) 2
notes: not shown: MBP, N-terminal, kept
B4: mSHARPIN_(163–341) (domain or fragment, mouse, UniProt Q91WA6 163-341, looked up)
chain: SSGNFKKEELATRLSQAIAGGDEKAAAQVAAVLAQHHVALNVQLMEAWFPPGPIRLQVTVEDATSVLSSSSSAHVSLKIHPHCSIAALQDQVFSEFGFPPAVQRWVIGRCLCMPERSLASYGVSQDGDPAFLYLLSAPREVSGQSLQNSKMDRKLGLFPQSLGLPHDLQPSSSSLPSPS
B5: GST-mHOIP D-UBA (aa 466–630) UBA2^mut (domain or fragment, mouse, UniProt Q924T7 466-630, looked up)
chain: SCGDPEKQRQDKMRKEGLQLVSMIQEGETAGASPEEVFSALQYSGTEVPLQWLRSELSYVLEMVAELAGQQDPELGAFSCQEARKAWLDRHGNLDEAVEECVRARRRKVHELQSLGFGPKEGSLQALFQHGGDVARALTELARQRAEPAHQRLWDRDPEPTPCWD
notes: also called UBA2^mut [Q607A/L611A/F614A]; not shown: GST, N-terminal, kept
B6: GST-mHOIP D-UBA (aa 466–630) UBA1^mut (domain or fragment, mouse, UniProt Q924T7 466-630, looked up)
chain: B5 chain with R9A, L18A, V21A, A142Q, A146L, A149F
notes: also called UBA1^mut [R474A/L483A/V486A]; not shown: GST, N-terminal, kept
B7: GST-mHOIP_(466–630) (domain or fragment, mouse, UniProt Q924T7 466-630, looked up)
chain: B5 chain with A142Q, A146L, A149F
notes: Captured on the SPR chip via an anti-GST antibody; also called mHOIP fragment containing the UBA domains; not shown: GST, N-terminal, kept
B8: mHOIP_(474–630) (domain or fragment, mouse, UniProt Q924T7 474-630, looked up)
chain: RQDKMRKEGLQLVSMIQEGETAGASPEEVFSALQYSGTEVPLQWLRSELSYVLEMVAELAGQQDPELGAFSCQEARKAWLDRHGNLDEAVEECVRARRRKVHELQSLGFGPKEGSLQALFQHGGDVARALTELQRQRLEPFHQRLWDRDPEPTPCWD
notes: also called double-UBA (D-UBA) domain

Legend:
GST-mHOIP_(466–630) [1] = target: B7; assay: SPR; settings: response read at end of injection (about 185 s); GST-mHOIP D-UBA WT immobilized with anti-GST antibody; parent: est. 270; read off a plot
mSHARPIN_(163–341) = target: B4; assay: crystal structure; LUBAC ternary complex core; sitting-drop vapor diffusion at 20°C, 1.8 M magnesium sulfate, 0.1 M MES pH 6.5; 2.4 Å; settings: both partners purified
mHOIP_(474–630) = target: B8; assay: SEC; analytical size-exclusion chromatography of the LUBAC core subunits; settings: both partners purified
GST-mHOIP_(466–630) [2] = target: B7; assay: SPR; GST-mHOIP D-UBA (aa 466–630; WT or mutant) immobilised on the sensor chip via an anti-GST antibody; one UBL-containing fragment alone as analyte; settings: both partners purified
mHOIL-1L_(1–189)-strep = target: T1, mHOIL-1L_(1–189)-strep; assay: SPR; mHOIL-1L_(1–189)-strep immobilised on the sensor chip with anti-strep antibody; MBP-mSHARPIN fragments as analytes; settings: both partners purified
mHOIL-1L_(1–140) = target: B1; assay: SEC; analytical size-exclusion chromatography of the LUBAC core subunits; settings: both partners purified
[3] = target: T2, mHOIL-1L_(1–140) and mSHARPIN_(163–301) …; assay: SPR; GST-mHOIP D-UBA (aa 466–630; WT or mutant) immobilised via an anti-GST antibody; HOIL-1L and SHARPIN fragments applied together as analytes (500 mg/ml each as printed); stability judged by dissociation; settings: both partners purified

**Q.** For “mHOIL-1L_(1–140) and mSHARPIN_(163–301) applied together (from UniProt Q9WUB0;Q91WA6) mSHARPIN: L176A; I180A”, which response (GST-mHOIP_(466–630) [1]) is on record?
**A.** 70 RU

**Q.** How did the response (GST-mHOIP_(466–630) [1]) turn out when “mHOIL-1L_(1–140) and mSHARPIN_(163–301) applied together (from UniProt Q9WUB0;Q91WA6) mHOIL-1L: L15A; V19A” was run?
**A.** 90 RU

**Q.** What does the source list for B1?
**A.** binding result (mSHARPIN_(163–341)): binds; stoichiometry N (mHOIP_(474–630)): 1; Kd (GST-mHOIP_(466–630) [2]): 1.34 µM

**Q.** How did the Kd (GST-mHOIP_(466–630) [2]) turn out when B2 was run?
**A.** 16 µM

**Q.** B3 was tested. Which Kd (mHOIL-1L_(1–189)-strep) did it give?
**A.** 2040 nM

**Q.** What about the koff (mHOIL-1L_(1–189)-strep) of the same molecule?
**A.** 0.00361 s⁻¹

**Q.** Which “stoichiometry N” value (mHOIL-1L_(1–140)) does the source give for B4 here?
**A.** 1

**Q.** And the “stoichiometry N” value (mHOIP_(474–630))?
**A.** 1

**Q.** Does B5 bind [3]?
**A.** binds

**Q.** Does B6 bind [3]?
**A.** binds

**Q.** For B7, which koff [3] is on record?
**A.** 0.000111 s⁻¹

**Q.** Does B8 bind (mSHARPIN_(163–341))?
**A.** binds
